B1: TPPP (parent)
chain: LCKDCQVIDGRNVTVTDVDIVFSK

Variants of: B1
Assay: protein stability index of a GFP-peptide fusion (GPS, HEK-293T) (PSI 1-6); higher = more stable
Conditions: c terminus: a fixed tail appended
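Note: lentivirally expressed fusions sorted by FACS into six bins by GFP to DsRed ratio, PSI derived from sequencing read proportions per bin multiplied by bin number.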

Protein stability index of substitutions, site by site:
T14: R 2.4; E 3.2; Y 2.15; S 2.83; W 2.52; G 3.05; P 2.75; V 1.72; C 2.41; M 1.6; H 2.61; K 2.48; I 2.76; N 2.73; A 2.81; L 1.84; F 1.91; Q 2.7; D 2.68
D9: I 1.66; T 2.99; H 2.07; L 2.48; Y 2.27; E 2.66; G 2.1; F 1.9; C 2.05; N 2; A 1.96; K 2.48; V 1.21; W 1.84; S 2.45; Q 2.76; M 2.19; R 2.53; P 2.65
V13: K 2.36; D 3.04; F 2.08; N 2.6; T 2.38; Y 2.37; L 2.48; I 2.31; H 2.32; W 3.13; C 2.16; P 3.08; R 3.03; G 2.79; M 2.54; A 2.75; E 3.59; S 3.12; Q 2.49
G10: Y 1.99; I 1.3; W 2.33; S 2.74; K 2.88; R 2.51; H 2.8; T 2.52; N 2.39; A 2.31; L 1.61; P 2.63; Q 2.47; D 3.35; V 2.34; C 2.14; E 2.55; F 1.77; M 1.54
K24: H 2.48; E 3.39; D 2.77; A 2.24; G 2.55; C 2.02
V7: L 2.2; C 2.4; K 2.46; A 2.61; P 2.96; G 2.59; D 3.64; S 3.05; N 2.61; E 2.94; Q 2.46; W 3.61; Y 1.53; R 2.8; I 2.33; T 2.87; H 2.44; F 2.33; M 2.31
V15: E 3.64; C 2.62; M 1.97; H 2.92; Y 2.01; Q 2.92; N 2.95; G 2.65; R 3.44; K 2.89; D 3.04; I 2.02; P 4.11; T 2.96; S 2.48; W 2.22; L 2.28; A 2.6; F 2.54
S23: E 3.28; D 2.81; M 1.84; Q 2.6; I 2.1; G 3.13; H 3.26; T 2.23; A 2.55; F 1.58; Y 1.72; W 2.31; N 2.75; P 2.98; L 1.82; K 3.58; C 3.21; R 2.35
D19: M 2.28; T 1.42; W 2.96; I 2.09; L 2.26; R 1.36; S 2.39; N 2.13; H 2.97; K 1.39; Q 1.65; F 2.45; P 2.56; E 1.79; A 2.77; G 2.08; C 2.4; Y 1.47; V 1.95
Q6: K 2.16; W 2.17; R 2.8; T 2.7; V 2.14; L 1.97; S 2.61; H 2.73; Y 2.4; M 2.66; N 2.49; P 3.16
R11: T 2.35; W 1.78; P 2.57; Q 2.35; S 2.58; M 2.16; N 2.85; I 1.68; Y 1.55; V 2.05; A 2.54; K 2.71; F 1.91; E 2.9; C 2.35; G 2.56; D 3.54; H 2.15; L 1.68
I8: Q 3.14; H 2.43; C 2.3; V 3.47; E 3.21; A 2.84; S 2.79; K 2.6; G 2.54; Y 2; F 2.42; T 3.12; L 2.24; N 2.35; R 3.2; W 1.83; M 2.81; D 3.97; P 3.19
D17: Q 1.77; V 2.65; H 2.48; N 1.45; Y 2.97; M 2.29; W 2.1; S 1.28; I 3.91; R 2.92; G 2.14; T 1.69; A 2.33; L 3.14; E 2.07; K 1.77; P 2.21
V21: Q 2.15; A 3.47; E 3.88; I 1.87; K 3.22; W 2.07; D 4; P 2.66; R 2.46; C 2.53; F 1.8; L 2.54; G 3.28; N 3.45; Y 2.08; T 3.2; H 2.65; S 3.34; M 1.96
V18: K 2.77; C 2.48; M 1.92; G 3.11; S 3.12; Y 2.6; T 3.69; N 3.79; E 3.52; I 2.44; W 2.23; L 2.4; H 2.91; F 2.54; R 3.06; A 2.9; P 2.73; D 3.58; Q 3.16
T16: P 2.23; S 2.92; G 2.01; A 2.23; Y 1.3; E 3.01; K 3.06; N 2.59; C 1.72; W 1.24; L 1.72; H 2.44; R 2.44; Q 2.54; D 3.37; I 3.14; M 1.48
F22: E 4.25; M 3.12; D 3.96; P 3.47; Y 2.84; K 3.94; G 4.09; N 3.66; S 2.78; C 3.38; Q 3.59; T 3.48; A 2.5; V 2.53; W 2.3; H 4.43; L 2.08; R 3.31; I 2.09
I20: M 2.5; S 2.55; T 3.06; E 3.92; C 2.68; N 3.5; P 3.14; F 2.38; R 3.22; K 3.27; A 3.04; L 3.02; Y 2.63; W 1.98; G 3.35; Q 3.79; D 3.46; H 2.91
N12: D 2.68; L 2.57; Y 2.66; C 2.17; P 2.4; E 3.88; S 1.98; K 2.52; H 2.65; M 1.73; T 2.11; F 2.48; Q 2.3; I 1.53; R 2.23; A 2.57; V 1.71; G 2.48

— the supplement of paper PMC10567573
